# Assay results as given in article doi:10.1101/2022.05.07.491029.
# Legend:
# [1] = target: HSV-1 gB-Sm (herpes simplex virus 1 (strain KOS)) (UniProt P06437); test: split reporter
# [2] = target: HSV-1 gD-Sm (herpes simplex virus 1 (strain KOS)) (UniProt Q69091); test: split reporter
# Sequence of UniProt Q69091 (Q69091 26-394): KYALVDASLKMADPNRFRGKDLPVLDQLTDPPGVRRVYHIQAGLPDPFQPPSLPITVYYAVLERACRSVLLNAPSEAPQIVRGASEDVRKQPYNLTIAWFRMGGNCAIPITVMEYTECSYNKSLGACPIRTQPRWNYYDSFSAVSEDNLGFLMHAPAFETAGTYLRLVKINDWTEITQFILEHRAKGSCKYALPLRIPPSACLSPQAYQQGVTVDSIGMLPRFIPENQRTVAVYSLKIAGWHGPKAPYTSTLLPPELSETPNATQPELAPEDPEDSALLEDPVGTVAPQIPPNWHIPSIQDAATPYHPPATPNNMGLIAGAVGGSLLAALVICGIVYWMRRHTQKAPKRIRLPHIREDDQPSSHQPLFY
substance,measurement,setting,value
HSV-1 gH-Lg expressed without gL (from UniProt P06477 19-838) (natural protein),fold reduction of the NanoBiT interaction in the absence of gL against gH/gL,[1],2 fold
same,fold reduction of the NanoBiT interaction in the absence of gL against gH/gL,[2],6 fold
